Source: patent US20250049970A1, “DLL3 TARGETING PEPTIDES AND CONSTRUCTS THEREOF” (MARIANA ONCOLOGY INC., priority 2023, published 2025)
*1 amine or outer side, *2 acyl side, *3 side chain or, on linkers, in order; H or OH if unused. Bridges are numbered along the chain shown (N, C = ends). [ ]: non-standard residue; d: D form. The star is where a group is joined. PipA(Peg) = 3-(4-piperidinyl)-Ala-(3-hydroxypropanoic acid), O=C(CCO[*:3])N1CCC(C[C@H](N[*:1])C(=O)[*:2])CC1; Ala(1-CH2CO2H-4-piperidyl) = N[C@@H](CC1CCN(CC(=O)O)CC1)C(=O)O; Ala(piperidin-4-yl) = O=C([C@H](CC1CCN([*:3])CC1)N[*:1])[*:2]; DOTA = O=C(O)CN1CCN(CC(=O)O)CCN(CC(=O)*)CCN(CC(=O)O)CC1; 2Nal = N[C@@H](Cc1ccc2ccccc2c1)C(=O)O; NMetBuAla = CN[C@@H](CC(C)(C)C)C(=O)O; Ile(3-Me) = CCC(C)(C)[C@H](N)C(=O)O; tBuAla = CC(C)(C)C[C@H](N)C(=O)O; CH2 = C([*:1])[*:2]

T1: DLL3 on SHP-77 cells (human, UniProt Q9NYJ7 27-618)
T1 construct: SHP-77 cells are human-derived, non-engineered SCLC cells
T1 sequence: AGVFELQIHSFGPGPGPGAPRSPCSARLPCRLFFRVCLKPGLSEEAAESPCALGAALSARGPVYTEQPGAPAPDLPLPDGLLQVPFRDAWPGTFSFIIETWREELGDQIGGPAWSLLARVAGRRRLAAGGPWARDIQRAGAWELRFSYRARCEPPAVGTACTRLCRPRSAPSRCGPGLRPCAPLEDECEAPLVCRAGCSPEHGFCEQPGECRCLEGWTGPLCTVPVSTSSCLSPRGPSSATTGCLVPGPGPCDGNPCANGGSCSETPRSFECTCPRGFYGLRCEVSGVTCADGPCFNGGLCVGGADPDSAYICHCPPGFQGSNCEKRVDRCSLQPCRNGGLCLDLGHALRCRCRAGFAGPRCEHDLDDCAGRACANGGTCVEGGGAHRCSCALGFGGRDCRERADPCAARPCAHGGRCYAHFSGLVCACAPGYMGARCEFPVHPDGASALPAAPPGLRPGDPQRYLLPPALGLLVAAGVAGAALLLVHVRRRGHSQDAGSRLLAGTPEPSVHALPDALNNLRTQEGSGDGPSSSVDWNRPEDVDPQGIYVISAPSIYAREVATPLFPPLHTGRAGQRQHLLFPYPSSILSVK

T2: DLL3 on CT26.DLL3 cells (Homo sapiens (Human), UniProt Q9NYJ7 27-618)
T2 construct: CT26.DLL3 are engineered cells to express DLL3
T2 sequence: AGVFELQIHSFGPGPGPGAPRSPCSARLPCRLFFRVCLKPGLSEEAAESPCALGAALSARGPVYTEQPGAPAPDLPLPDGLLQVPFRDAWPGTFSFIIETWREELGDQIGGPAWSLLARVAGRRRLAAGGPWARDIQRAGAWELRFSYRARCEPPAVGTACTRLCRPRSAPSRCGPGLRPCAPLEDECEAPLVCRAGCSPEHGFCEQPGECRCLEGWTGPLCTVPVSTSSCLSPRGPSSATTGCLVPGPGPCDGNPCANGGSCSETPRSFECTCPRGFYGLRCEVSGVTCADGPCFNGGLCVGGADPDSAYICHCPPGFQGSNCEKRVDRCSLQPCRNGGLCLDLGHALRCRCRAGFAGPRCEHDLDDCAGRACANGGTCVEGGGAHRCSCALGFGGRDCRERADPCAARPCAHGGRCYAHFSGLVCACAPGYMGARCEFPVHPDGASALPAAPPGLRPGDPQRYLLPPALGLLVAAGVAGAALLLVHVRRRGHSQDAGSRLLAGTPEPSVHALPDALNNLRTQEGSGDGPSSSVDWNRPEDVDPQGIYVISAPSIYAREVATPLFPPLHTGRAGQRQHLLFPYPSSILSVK


Tests used:
DLL3 on SHP-77 cells = target: T1, DLL3 on SHP-77 cells; assay: [177Lu]Lu-labelled peptide on SHP-77 cells, 1 h 37 C, gamma counter; C = %>50
DLL3 on CT26.DLL3 cells = target: T2, DLL3 on CT26.DLL3 cells; assay: [177Lu]Lu-labelled peptide on CT26.DLL3 cells, 1 h 37 C, gamma counter; A = %<=25
Experimental: Adherent cell studies: The cells were cultured in appropriate culture media (20 mL) in tissue culture treated T150 flasks at 37° C. and 5% C02. Adherent cells were detached (60-70% confluent) using 5 mL Versene at 37° C. for 3 minutes. After confirming the viability using countess and count of detached cells using Trypan blue, the cells were centrifuged at 4° C. for 5 minutes (1,000 rpm). The cell pellet obtained was washed once with PBS and resuspended in 1% PBSA to obtain the desired cell concentration (5-25 million cells/mL).
Total uptake: Cells were incubated with 300 μL (0.8 μCi) of the incubation buffer (containing radiolabeled peptide [¹⁷⁷Lu]Lu-test peptide) for 1 hour at 37° C. (Table 10). Post incubation, the cells were pelleted and washed 2 times using cold PBS+1% BSA. The supernatant and washes were combined and counted together as “unbound fraction” in a gamma counter. The cells were then resuspended in 300 μL of 1% PBS+1% BSA and counted in the gamma counter as “bound fraction”.

Binder | % Binding (DLL3 on SHP-77 cells) | % Binding (DLL3 on CT26.DLL3 cells)
Ac-WT[NMetBuAla]C[Ala(piperidin-4-yl)]N[2Nal]K(DOTA)DCWP[dK]-NH2 (bridge 4-10; not fully specified (residue 13)) [Cpd No. 445] | > 50% | –
Ac-WT[NMetBuAla]C[Ala(piperidin-4-yl)]N[2Nal]K(DOTA)DCWP-NH2 (bridge 4-10; not fully specified (bridges)) [Cpd No. 153] | > 50% | –
Ac-WT[Ile(3-Me)]CNN[2Nal]K(DOTA)DCWP-NH2 (disulfide 4-10) [Cpd No. 321] | – | ≤ 25%
Ac-WT[tBuAla]CNN[2Nal]K(DOTA)DCWP-NH2 (disulfide 4-10) [Cpd No. 316] | – | ≤ 25%

Now from value to binder:

% Binding (DLL3 on SHP-77 cells) | % Binding (DLL3 on CT26.DLL3 cells) | Binder
> 50% | – | Ac-WT[NMetBuAla]C[Ala(1-CH2CO2H-4-piperidyl)]N[2Nal]K(DOTA)DCWP-NH2 (linker 4-10 via CH2) [Cpd No. 447]
> 50% | – | Ac-WT[NMetBuAla]C[PipA(Peg)]N[2Nal]K(DOTA)DCWP-NH2 (linker 4-10 via CH2) [Cpd No. 448]
